Assay results from FireProtDB (doi:10.1046/j.1432-1327.1999.00491.x).
Several values for one entry are separate records, joined by “and”; a condition that tells them apart may be missing. Equal values may be shown once.

Conditions: Enterobacteria phage 434, Thermal, DSC, reversible: yes, whole UniProt chain shown; for unfolding free energy: 25 °C
[1] = pH 2, glycine 20 mM, NaCl 200 mM
[2] = pH 3, glycine 20 mM, NaCl 200 mM
[3] = pH 4, Sodium acetate 20 mM, NaCl 200 mM
[4] = pH 4.5, Sodium acetate 20 mM, NaCl 200 mM

B1: Regulatory protein cro wild type, P03036 (protein)
chain: MQTLSERLKKRRIALKMTQTELATKAGVKQQSIQLIEAGVTKRPRFLFEIAMALNCDPVWLQYGTKRGKAA
With B1 the unfolding free energy [1] was 1.17 kcal/mol, the unfolding free energy (pH 2, glycine 20 mM) was 0.22 kcal/mol and the Tm [1] was 38.3 °C and 39.4 °C and 35.6 °C. For the same protein, the “unfolding enthalpy (calorimetric)” value [1] was 33.5 kcal/mol and 33.9 kcal/mol and 34.2 kcal/mol, the “unfolding enthalpy (calorimetric)” value (pH 2, glycine 20 mM) was 24.1 kcal/mol and 27.5 kcal/mol and 22.2 kcal/mol and the unfolding free energy [2] was 2.27 kcal/mol. For the same protein, the unfolding free energy (pH 3, glycine 20 mM) was 2.58 kcal/mol, the “unfolding enthalpy (calorimetric)” value [2] was 42.1 kcal/mol and 40.4 kcal/mol and 39 kcal/mol and the “unfolding enthalpy (calorimetric)” value (pH 3, glycine 20 mM) was 34.4 kcal/mol and 32 kcal/mol. The unfolding free energy [3] was 3.78 kcal/mol, the unfolding free energy (pH 4, Sodium acetate 20 mM) was 3.59 kcal/mol and the Tm [3] was 59.8 °C and 57.8 °C and 57.2 °C. For the same protein, the “unfolding enthalpy (calorimetric)” value [3] was 51.1 kcal/mol and 50 kcal/mol and 49.7 kcal/mol, the Tm (pH 4, Sodium acetate 20 mM) was 58.2 °C and 53.6 °C and the “unfolding enthalpy (calorimetric)” value (pH 4, Sodium acetate 20 mM) was 50 kcal/mol and 45.6 kcal/mol and 44.2 kcal/mol. The unfolding free energy [4] was 4.33 kcal/mol, the unfolding free energy (pH 4.5, Sodium acetate 20 mM) was 4.4 kcal/mol and the Tm [4] was 63.7 °C and 63.5 °C and 60.2 °C. For the same protein, the “unfolding enthalpy (calorimetric)” value [4] was 54 kcal/mol and 54.7 kcal/mol and 52.1 kcal/mol, the “unfolding enthalpy (calorimetric)” value (pH 4.5, Sodium acetate 20 mM) was 53.1 kcal/mol and 46.4 kcal/mol and the unfolding free energy (pH 7, PIPES 20 mM, NaCl 200 mM) was 5.33 kcal/mol. For the same protein, the unfolding free energy (pH 7, PIPES 20 mM) was 5.35 kcal/mol, the Tm (pH 7, PIPES 20 mM, NaCl 200 mM) was 70.7 °C and 66.6 °C and 67.6 °C and the “unfolding enthalpy (calorimetric)” value (pH 7, PIPES 20 mM, NaCl 200 mM) was 58.6 kcal/mol and 57.6 kcal/mol and 58.1 kcal/mol. For the same protein, the Tm (pH 7, PIPES 20 mM) was 70.7 °C and 67.2 °C and the “unfolding enthalpy (calorimetric)” value (pH 7, PIPES 20 mM) was 59 kcal/mol and 54 kcal/mol.
